This note sets out measurements from patent US20250057776A1.

The assay concerns the target human integrin β5 (human) (UniProt P18084). The assay can be described thus: cell-based or functional assay.
Sequence of UniProt P18084 (P18084 24-799 limits assumed): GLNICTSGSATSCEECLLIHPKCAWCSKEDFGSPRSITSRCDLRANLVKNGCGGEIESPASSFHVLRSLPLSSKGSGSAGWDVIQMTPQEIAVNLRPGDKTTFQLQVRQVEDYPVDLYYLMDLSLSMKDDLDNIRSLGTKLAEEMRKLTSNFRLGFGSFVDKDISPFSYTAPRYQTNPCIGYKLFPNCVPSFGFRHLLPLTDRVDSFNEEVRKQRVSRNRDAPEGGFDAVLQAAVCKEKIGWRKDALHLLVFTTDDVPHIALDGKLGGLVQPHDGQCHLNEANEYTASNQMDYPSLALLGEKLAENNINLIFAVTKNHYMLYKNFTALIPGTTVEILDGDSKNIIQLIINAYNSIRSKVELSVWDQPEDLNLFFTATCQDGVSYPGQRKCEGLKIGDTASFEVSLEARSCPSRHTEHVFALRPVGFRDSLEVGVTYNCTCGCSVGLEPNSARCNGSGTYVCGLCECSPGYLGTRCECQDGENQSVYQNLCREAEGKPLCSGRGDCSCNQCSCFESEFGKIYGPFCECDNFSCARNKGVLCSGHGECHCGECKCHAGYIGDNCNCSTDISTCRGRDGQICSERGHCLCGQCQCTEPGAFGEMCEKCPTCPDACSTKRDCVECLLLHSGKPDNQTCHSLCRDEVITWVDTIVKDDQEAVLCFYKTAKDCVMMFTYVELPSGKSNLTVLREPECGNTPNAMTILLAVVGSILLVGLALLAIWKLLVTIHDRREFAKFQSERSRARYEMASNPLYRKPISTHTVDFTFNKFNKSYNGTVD

In the case of “anti-integrin β5 antibodies (model number D24A5, rabbit monoclonal antibodies #3629, commercially available from Cell Signaling Technology) (antibody)”, the Brightness (integration, A.U.) of plate of HPF cells after exosome introduction; integrin β5-introduced exosome + anti-integrin β5 antibodies (6.1 × 10^6 without antibodies) was determined as 5.1e+06 A.U.
